# Results reported in patent publication US20230338465A1 (VITRUVIAE, published 2023).
# Where “and” joins values, the source holds several entries; their conditions need not be identical. Equal values may be shown once. Read-outs that look alike come from different tables or passages of the source.
# How the values were obtained:
# Assay in all cases: ELISA, 2.5 mM CaCl2
# SARS-Cov-2 S D614G [1] = target: T1, SARS-Cov-2 S D614G (SARS-CoV-2, UniProt P0DTC2 16-1213)
# T1 construct: also called SARS-CoV-2 S protein (D614G); SARS-COV2 S Protein
# SARS-Cov-2 S D614G [2] = target: T1, SARS-Cov-2 S D614G; remark: listed apart in the source
# SARS-Cov-2 S D614G [3] = target: T1, SARS-Cov-2 S D614G; remark: listed apart in the source
# SARS-Cov-2 S D614G [4] = target: T1, SARS-Cov-2 S D614G; remark: listed apart in the source
Binder,EC50 (SARS-Cov-2 S D614G [1]),EC50 (SARS-Cov-2 S D614G [2]) [µg/mL],EC50 (SARS-Cov-2 S D614G [3]) [nM],EC50 (SARS-Cov-2 S D614G [4])
"VP020 (V-CTLD-1 with V-IGG4-ADC-B-Fc) (Fc fusion, also called CT-G4-B-DC; VIT-308) ERLCHPCPWEWTFFQGNCYFMSNSQRNWHDSITACKEVGAQLVVIKSAEEQNFLQLQSSRSNRFTWMGLSDLNQEGTWQWVDGSPLLPSFKQYWNRGEPNNVGEEDCAEFSGNGWNDDKCNLAKFWICKKSAASCSGGGGSGGGGSGGGGSKYGPPCPPCPAPEAAGGPSVFLFPPKPKDTLMISRTPEVTCVVVDVSQEDPEVQFNWYVDGVEVHNAKTKPREEQFNSTYRVVSVLTVLHQDWLNGKEYKCAVSNKGLPSSIEKTISKCKGQPREPQVYTLPPSQEEMTKNQVSLTCLVKGFYPSDIAVEWESNGQPENNYKTTPPVLDSDGSFLLYSKLTVDKSRWQEGNVFSCSVMHEALHNHYTQKSLSLSLGK",55.6 µg/mL and 641 nM,4.5,52.5,–
"VP019-F2 (multimer fraction F2 of VP019, V-TIM1-1 with V-IGG4-ADC-A-Fc) (Fc fusion, also called TM-G4-A-DC; VIT-307) SVKVGGEAGPSVTLPCHYSGAVTSMCWNRGSCSLFTCQNGIVWTNGTHVTYRKDTRYKLLGDLSRRDVSLTIENTAVSDSGVYCCRVEHRGWFNDMKITVSLEIVGGGGSGGGGSGGGGSKYGPPCPPCPAPEAAGGPSVFLFPPKPKDTLMISRTPEVTCVVVDVSQEDPEVQFNWYVDGVEVHNAKTKPREEQFNSTYRVVSVLTVLHQDWLNGKEYKCAVSNKGLPSSIEKTISKCKGQPREPQVYTLPPSQEEMTKNQVSLTCLVKGFYPSDIAVEWESNGQPENNYKTTPPVLDSDGSFFLYSRLTVDKSRWQEGNVFSCSVMHEALHNHYTQKSLSLSLGK",0.9 µg/mL and 10.6 nM,1.7,21.1,–
"VP025-F4 (fraction 4 of VP025-CT, VP019/VP020 heterodimer, about 78% pure) (Fc fusion, also called VP025-F4 (78% pure heterodimer)) chain 1: SVKVGGEAGPSVTLPCHYSGAVTSMCWNRGSCSLFTCQNGIVWTNGTHVTYRKDTRYKLLGDLSRRDVSLTIENTAVSDSGVYCCRVEHRGWFNDMKITVSLEIVGGGGSGGGGSGGGGSKYGPPCPPCPAPEAAGGPSVFLFPPKPKDTLMISRTPEVTCVVVDVSQEDPEVQFNWYVDGVEVHNAKTKPREEQFNSTYRVVSVLTVLHQDWLNGKEYKCAVSNKGLPSSIEKTISKCKGQPREPQVYTLPPSQEEMTKNQVSLTCLVKGFYPSDIAVEWESNGQPENNYKTTPPVLDSDGSFFLYSRLTVDKSRWQEGNVFSCSVMHEALHNHYTQKSLSLSLGK chain 2: ERLCHPCPWEWTFFQGNCYFMSNSQRNWHDSITACKEVGAQLVVIKSAEEQNFLQLQSSRSNRFTWMGLSDLNQEGTWQWVDGSPLLPSFKQYWNRGEPNNVGEEDCAEFSGNGWNDDKCNLAKFWICKKSAASCSGGGGSGGGGSGGGGSKYGPPCPPCPAPEAAGGPSVFLFPPKPKDTLMISRTPEVTCVVVDVSQEDPEVQFNWYVDGVEVHNAKTKPREEQFNSTYRVVSVLTVLHQDWLNGKEYKCAVSNKGLPSSIEKTISKCKGQPREPQVYTLPPSQEEMTKNQVSLTCLVKGFYPSDIAVEWESNGQPENNYKTTPPVLDSDGSFLLYSKLTVDKSRWQEGNVFSCSVMHEALHNHYTQKSLSLSLGK",–,0.8,10,–
"VP025-CT (co-transfected product of genes TM-G4-A-DC and CT-G4-B-DC, heterodimer mixture) (Fc fusion, also called VP025-CT (heterodimer mixture)) chain 1: SVKVGGEAGPSVTLPCHYSGAVTSMCWNRGSCSLFTCQNGIVWTNGTHVTYRKDTRYKLLGDLSRRDVSLTIENTAVSDSGVYCCRVEHRGWFNDMKITVSLEIVGGGGSGGGGSGGGGSKYGPPCPPCPAPEAAGGPSVFLFPPKPKDTLMISRTPEVTCVVVDVSQEDPEVQFNWYVDGVEVHNAKTKPREEQFNSTYRVVSVLTVLHQDWLNGKEYKCAVSNKGLPSSIEKTISKCKGQPREPQVYTLPPSQEEMTKNQVSLTCLVKGFYPSDIAVEWESNGQPENNYKTTPPVLDSDGSFFLYSRLTVDKSRWQEGNVFSCSVMHEALHNHYTQKSLSLSLGK chain 2: ERLCHPCPWEWTFFQGNCYFMSNSQRNWHDSITACKEVGAQLVVIKSAEEQNFLQLQSSRSNRFTWMGLSDLNQEGTWQWVDGSPLLPSFKQYWNRGEPNNVGEEDCAEFSGNGWNDDKCNLAKFWICKKSAASCSGGGGSGGGGSGGGGSKYGPPCPPCPAPEAAGGPSVFLFPPKPKDTLMISRTPEVTCVVVDVSQEDPEVQFNWYVDGVEVHNAKTKPREEQFNSTYRVVSVLTVLHQDWLNGKEYKCAVSNKGLPSSIEKTISKCKGQPREPQVYTLPPSQEEMTKNQVSLTCLVKGFYPSDIAVEWESNGQPENNYKTTPPVLDSDGSFLLYSKLTVDKSRWQEGNVFSCSVMHEALHNHYTQKSLSLSLGK",6.9 µg/mL and 82.5 nM,1.2,13.8,4 µg/mL and 47.6 nM
